Assay results published in patent publication US20110091994A1, “Methods for Screening Compounds for Treating and/or Preventing an Hepatitis C Virus Infection” (priority 2008, published 2011).

Legend:
[1] = biological target: T1, HCV ORFs (Gal4-DB fusions) (Hepatitis C virus genotype 1b, UniProt Q9WMX2); format: binding, HCV genotype 1b, isolate con1; settings: HCV protein NS3 as bait; human protein as prey
T1 construct: expressed in transfected cells; host or cells: Saccharomyces cerevisiae MAV203 (IMAP1) / AH109 (IMAP2)
T1 sequence (Q9WMX2 1027-1657): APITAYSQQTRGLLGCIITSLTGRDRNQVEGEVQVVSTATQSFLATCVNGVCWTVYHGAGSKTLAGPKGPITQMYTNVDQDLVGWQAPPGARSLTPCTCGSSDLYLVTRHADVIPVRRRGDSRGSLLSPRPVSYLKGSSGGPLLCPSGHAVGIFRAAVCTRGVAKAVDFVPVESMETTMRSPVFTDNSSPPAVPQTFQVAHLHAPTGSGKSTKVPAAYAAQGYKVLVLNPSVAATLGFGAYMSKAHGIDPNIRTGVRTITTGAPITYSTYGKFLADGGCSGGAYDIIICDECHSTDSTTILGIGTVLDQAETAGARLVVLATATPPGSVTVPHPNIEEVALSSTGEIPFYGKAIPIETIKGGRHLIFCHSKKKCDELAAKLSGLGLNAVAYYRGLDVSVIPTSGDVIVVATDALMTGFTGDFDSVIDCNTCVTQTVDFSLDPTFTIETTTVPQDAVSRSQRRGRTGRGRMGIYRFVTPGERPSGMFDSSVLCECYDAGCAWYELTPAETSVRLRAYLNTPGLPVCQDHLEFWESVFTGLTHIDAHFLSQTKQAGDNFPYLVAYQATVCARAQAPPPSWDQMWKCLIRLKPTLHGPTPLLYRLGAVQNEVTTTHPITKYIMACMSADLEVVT

[2] = tested on: HCV ORFs (Gal4-DB fusions); format: binding, HCV genotype 1b, isolate con1; settings: human protein listed by gene symbol; the value names the HCV protein it interacts with
[3] = biological target: T2, HCV proteins (Hepatitis C virus genotype 1b, UniProt Q9WMX2); experiment: Validation by Y2H pairwise matrices; format: binding; settings: validation of interaction with HCV protein NS3;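 also: yeast two-hybrid pairwise tests of interactions first found in Y2H screens of HCV bait proteins against human cDNA libraries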
T2 construct: expressed in transfected cells
T2 sequence (Q9WMX2 1027-1657): as above
Protocol: A comprehensive interactome map between HCV and cellular proteins was generated by Y2H screens. Twenty seven constructs encoding full-length HCV mature proteins or discrete domains were cloned using a recombination-based cloning system (10) (FIG. 6). Four independent screens were performed with each HCV bait protein, probing two distinct human cDNA libraries (Supplementary Methods). […] Two validation methods were used to assess the confidence of the IMAP Y2H dataset.
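For IMAP Y2H IMAP1 (number of IST) in this document: yeast two-hybrid screens using HCV genotype 1b proteins fused to Gal4-DB as baits against prey cDNA libraries from human spleen and foetal brain, IMAP1 via transformation and IMAP2 via mating.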
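For Interaction with viral protein in this document: yeast two-hybrid screens using HCV genotype 1b proteins fused to Gal4-DB as baits against prey cDNA libraries from human spleen and foetal brain, IMAP1 via transformation and IMAP2 via mating.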

B1: NID1 (protein, UniProt P14543 29-1247, looked up)
Nidogen-1: LSRQELFPFGPGQGDLELEDGDDFVSPALELSGALRFYDRSDIDAVYVTTNGIIATSEPPAKESHPGLFPPTFGAVAPFLADLDTTDGLGKVYYREDLSPSITQRAAECVHRGFPEISFQPSSAVVVTWESVAPYQGPSRDPDQKGKRNTFQAVLASSDSSSYAIFLYPEDGLQFHTTFSKKENNQVPAVVAFSQGSVGFLWKSNGAYNIFANDRESVENLAKSSNSGQQGVWVFEIGSPATTNGVVPADVILGTEDGAEYDDEDEDYDLATTRLGLEDVGTTPFSYKALRRGGADTYSVPSVLSPRRAATERPLGPPTERTRSFQLAVETFHQQHPQVIDVDEVEETGVVFSYNTDSRQTCANNRHQCSVHAECRDYATGFCCSCVAGYTGNGRQCVAEGSPQRVNGKVKGRIFVGSSQVPIVFENTDLHSYVVMNHGRSYTAISTIPETVGYSLLPLAPVGGIIGWMFAVEQDGFKNGFSITGGEFTRQAEVTFVGHPGNLVIKQRFSGIDEHGHLTIDTELEGRVPQIPFGSSVHIEPYTELYHYSTSVITSSSTREYTVTEPERDGASPSRIYTYQWRQTITFQECVHDDSRPALPSTQQLSVDSVFVLYNQEEKILRYALSNSIGPVREGSPDALQNPCYIGTHGCDTNAACRPGPRTQFTCECSIGFRGDGRTCYDIDECSEQPSVCGSHTICNNHPGTFRCECVEGYQFSDEGTCVAVVDQRPINYCETGLHNCDIPQRAQCIYTGGSSYTCSCLPGFSGDGQACQDVDECQPSRCHPDAFCYNTPGSFTCQCKPGYQGDGFRCVPGEVEKTRCQHEREHILGAAGATDPQRPIPPGLFVPECDAHGHYAPTQCHGSTGYCWCVDRDGREVEGTRTRPGMTPPCLSTVAPPIHQGPAVPTAVIPLPPGTHLLFAQTGKIERLPLEGNTMRKTEAKAFLHVPAKVIIGLAFDCVDKMVYWTDITEPSIGRASLHGGEPTTIIRQDLGSPEGIAVDHLGRNIFWTDSNLDRIEVAKLDGTQRRVLFETDLVNPRGIVTDSVRGNLYWTDWNRDNPKIETSYMDGTNRRILVQDDLGLPNGLTFDAFSSQLCWVDAGTNRAECLNPSQPSRRKALEGLQYPFAVTSYGKNLYFTDWKMNSVVALDLAISKETDAFQPHKQTRLYGITTALSQCPQGHNYCSVNNGGCTHLCLATPGSRTCRCPDNTLGVDCIEQK
With B1 the “IMAP Y2H IMAP1 (number of IST)” value [1] was 2, the “Interaction with viral protein” value [2] was “NS3” and the Y2H matrices [3] was “+”.

B2: NID2 (protein, UniProt Q14112 31-1375, looked up)
Nidogen-2: LHPDELFPHGESWGDQLLQEGDDESSAVVKLANPLHFYEARFSNLYVGTNGIISTQDFPRETQYVDYDFPTDFPAIAPFLADIDTSHGRGRVLYREDTSPAVLGLAARYVRAGFPRSARFTPTHAFLATWEQVGAYEEVKRGALPSGELNTFQAVLASDGSDSYALFLYPANGLQFLGTRPKESYNVQLQLPARVGFCRGEADDLKSEGPYFSLTSTEQSVKNLYQLSNLGIPGVWAFHIGSTSPLDNVRPAAVGDLSAAHSSVPLGRSFSHATALESDYNEDNLDYYDVNEEEAEYLPGEPEEALNGHSSIDVSFQSKVDTKPLEESSTLDPHTKEGTSLGEVGGPDLKGQVEPWDERETRSPAPPEVDRDSLAPSWETPPPYPENGSIQPYPDGGPVPSEMDVPPAHPEEEIVLRSYPASGHTTPLSRGTYEVGLEDNIGSNTEVFTYNAANKETCEHNHRQCSRHAFCTDYATGFCCHCQSKFYGNGKHCLPEGAPHRVNGKVSGHLHVGHTPVHFTDVDLHAYIVGNDGRAYTAISHIPQPAAQALLPLTPIGGLFGWLFALEKPGSENGFSLAGAAFTHDMEVTFYPGEETVRITQTAEGLDPENYLSIKTNIQGQVPYVSANFTAHISPYKELYHYSDSTVTSTSSRDYSLTFGAINQTWSYRIHQNITYQVCRHAPRHPSFPTTQQLNVDRVFALYNDEERVLRFAVTNQIGPVKEDSDPTPGNPCYDGSHMCDTTARCHPGTGVDYTCECASGYQGDGRNCVDENECATGFHRCGPNSVCINLPGSYRCECRSGYEFADDRHTCILITPPANPCEDGSHTCAPAGQARCVHHGGSTFSCACLPGYAGDGHQCTDVDECSENRCHPAATCYNTPGSFSCRCQPGYYGDGFQCIPDSTSSLTPCEQQQRHAQAQYAYPGARFHIPQCDEQGNFLPLQCHGSTGFCWCVDPDGHEVPGTQTPPGSTPPHCGPSPEPTQRPPTICERWRENLLEHYGGTPRDDQYVPQCDDLGHFIPLQCHGKSDFCWCVDKDGREVQGTRSQPGTTPACIPTVAPPMVRPTPRPDVTPPSVGTFLLYTQGQQIGYLPLNGTRLQKDAAKTLLSLHGSIIVGIDYDCRERMVYWTDVAGRTISRAGLELGAEPETIVNSGLISPEGLAIDHIRRTMYWTDSVLDKIESALLDGSERKVLFYTDLVNPRAIAVDPIRGNLYWTDWNREAPKIETSSLDGENRRILINTDIGLPNGLTFDPFSKLLCWADAGTKKLECTLPDGTGRRVIQNNLKYPFSIVSYADHFYHTDWRRDGVVSVNKHSGQFTDEYLPEQRSHLYGITAVYPYCPTGRK
In the case of B2, the “IMAP Y2H IMAP1 (number of IST)” value [1] is reported as 2, the “Interaction with viral protein” value [2] is reported as “NS3” and the Y2H matrices [3] is reported as “+”.

B3: NELL1 (protein, UniProt Q92832 22-810, looked up)
Protein kinase C-binding …: FGMDPDLQMDIVTELDLVNTTLGVAQVSGMHNASKAFLFQDIEREIHAAPHVSEKLIQLFRNKSEFTILATVQQKPSTSGVILSIRELEHSYFELESSGLRDEIRYHYIHNGKPRTEALPYRMADGQWHKVALSVSASHLLLHVDCNRIYERVIDPPDTNLPPGINLWLGQRNQKHGLFKGIIQDGKIIFMPNGYITQCPNLNHTCPTCSDFLSLVQGIMDLQELLAKMTAKLNYAETRLSQLENCHCEKTCQVSGLLYRDQDSWVDGDHCRNCTCKSGAVECRRMSCPPLNCSPDSLPVHIAGQCCKVCRPKCIYGGKVLAEGQRILTKSCRECRGGVLVKITEMCPPLNCSEKDHILPENQCCRVCRGHNFCAEGPKCGENSECKNWNTKATCECKSGYISVQGDSAYCEDIDECAAKMHYCHANTVCVNLPGLYRCDCVPGYIRVDDFSCTEHDECGSGQHNCDENAICTNTVQGHSCTCKPGYVGNGTICRAFCEEGCRYGGTCVAPNKCVCPSGFTGSHCEKDIDECSEGIIECHNHSRCVNLPGWYHCECRSGFHDDGTYSLSGESCIDIDECALRTHTCWNDSACINLAGGFDCLCPSGPSCSGDCPHEGGLKHNGQVWTLKEDRCSVCSCKDGKIFCRRTACDCQNPSADLFCCPECDTRVTSQCLDQNGHKLYRSGDNWTHSCQQCRCLEGEVDCWPLTCPNLSCEYTAILEGECCPRCVSDPCLADNITYDIRKTCLDSYGVSRLSGSVWTMAGSPCTTCKCKNGRVCCSVDFECLQNN
With B3 the “IMAP Y2H IMAP1 (number of IST)” value [1] was 3, the “Interaction with viral protein” value [2] was “NS3” and the Y2H matrices [3] was “+”.

B4: NEFM (protein, UniProt P07197 2-916, looked up)
Neurofilament medium …: SYTLDSLGNPSAYRRVTETRSSFSRVSGSPSSGFRSQSWSRGSPSTVSSSYKRSMLAPRLAYSSAMLSSAESSLDFSQSSSLLNGGSGPGGDYKLSRSNEKEQLQGLNDRFAGYIEKVHYLEQQNKEIEAEIQALRQKQASHAQLGDAYDQEIRELRATLEMVNHEKAQVQLDSDHLEEDIHRLKERFEEEARLRDDTEAAIRALRKDIEEASLVKVELDKKVQSLQDEVAFLRSNHEEEVADLLAQIQASHITVERKDYLKTDISTALKEIRSQLESHSDQNMHQAEEWFKCRYAKLTEAAEQNKEAIRSAKEEIAEYRRQLQSKSIELESVRGTKESLERQLSDIEERHNHDLSSYQDTIQQLENELRGTKWEMARHLREYQDLLNVKMALDIEIAAYRKLLEGEETRFSTFAGSITGPLYTHRPPITISSKIQKPKVEAPKLKVQHKFVEEIIEETKVEDEKSEMEEALTAITEELAVSMKEEKKEAAEEKEEEPEAEEEEVAAKKSPVKATAPEVKEEEGEKEEEEGQEEEEEEDEGAKSDQAEEGGSEKEGSSEKEEGEQEEGETEAEAEGEEAEAKEEKKVEEKSEEVATKEELVADAKVEKPEKAKSPVPKSPVEEKGKSPVPKSPVEEKGKSPVPKSPVEEKGKSPVPKSPVEEKGKSPVSKSPVEEKAKSPVPKSPVEEAKSKAEVGKGEQKEEEEKEVKEAPKEEKVEKKEEKPKDVPEKKKAESPVKEEAVAEVVTITKSVKVHLEKETKEEGKPLQQEKEKEKAGGEGGSEEEGSDKGAKGSRKEDIAVNGEVEGKEEVEQETKEKGSGREEEKGVVTNGLDLSPADEKKGGDKSEEKVVVTKTVEKITSEGGDGATKYITKSVTVTQKVEEHEETFEEKLVSTKKVEKVTSHAIVKEVTQSD
B4 was tested, and the “IMAP Y2H IMAP1 (number of IST)” value [1] was 1, the “Interaction with viral protein” value [2] was “NS3” and the Y2H matrices [3] was “+”.
